In patent US11406709B2, “Therapeutic and research application of PDCL3” (TRUSTEES OF BOSTON UNIVERSITY, priority 2014, dated 2022):

Columns and labels:
PDCL3 with VEGFR-2 = assay: Brefeldin A treatment, co-immunoprecipitation of PDCL3 with VEGFR-2; type: cell-based; conditions: HEK-293 cells
Experimental: FIG. 7A. Cells expressing VEGFR-2 alone or together were subjected cell surface biotinylation. Non-biotinylated and biotinylated fractions were immunoprecipitated with anti-VEGFR-2 antibody and blotted for PDCL3 using anti-c-Myc antibody. Non-biotinylated and biotinylated fractions also were blotted for VEGFR-2 and PARP as a control. FIG. 7B. HEK-293 cells were co-transfected with Myc-tagged PDCL3 and VEGFR-2 and after 48 hours they were treated with BFA or control vehicle. Cells were lysed and whole cell lysates were either blotted for VEGFR-2 or were subjected co-immunoprecipitation using anti-c-Myc antibody followed by immunoblotting with anti-VEGFR-2. FIG. 7C. HEK-293 cells were co-transfected with Myc-tagged PDCL3 and VEGFR-2 and after 48 hours cells were fixed and subjected to IF staining as described in Materials and Method section. Cells were stained with anti-PDCL3, anti-c-myc antibodies (FIGS. 7C-7D) or endoplasmic reticulum specific dye FIG. 7E.

PDCL3 and VEGFR-2 = assay: Chemical hypoxia, expression of PDCL3 and VEGFR-2; type: cell-based
From the text: To test whether, increased expression of VEGFR-2 in response to hypoxia is linked to induction of PDCL3 expression, we silenced expression of PDCL3 by siRNA and analyzed measured VEGFR-2 levels.

zebrafish embryos = assay: Zebrafish angiogenesis assay; type: in vivo, zebrafish (Danio rerio); conditions: microinjection into embryos, 28 hpf
Experimental: The vectors were linearized with Not I restriction enzyme, treated with Proteinase K (SIGMA) and extracted with phenol. Linearized plasmid DNA (1 μg/μl) in RNAse-free water was used for in vitro capped mRNA synthesis using the MMESSAGE MMACHINE® SP6 kit (AMBION) according to manufacturer instructions and RNA subsequently was used to inject into zebrafish embryos.
Fli-eGFP-transgenic adult male and female zebrafish (Danio rerio) were housed in […] light-dark cycle at a temperature of (26.5° C.) and a pH of (7.0-7.4) in a controlled multi-tank recirculating water system (Aquatic Habitats, Apopka, Fla.). Fish were fed twice daily with live brine shrimp (Brine Shrimp Direct, Ogden, Utah) and flake food (TetraMin; Tetra, Blacksburg, Va.). A glass capillary needle attached to a Femtojet injector (EPPENDORF) was used for injecting RNA (10 or 5 ng/μl in approximately 10 pl) into 1- or 2-cell-stage embryos. The embryos were grown at 28° C. for 3 days. The embryos were examined after 28 or 50 hpf using Zeiss immunofluorescence microscope. The images of fish under same setting were obtained for 10 fish per group at every experiment and analyzed for the length of the tail vessels using IMAGE-PRO® software and for the tail vessel plexus fluorescent intensity using Image J software.

[1] = tested on: VEGFR-1, VEGFR-2 and CSF-1R; assay: Receptor expression in HEK-293 cells expressing PDCL3; type: cell-based
Experimental: FIG. 1A. HEK-293 cells expressing VEGFR-2 were transfected with different concentrations of C-terminus Myc-tagged PDCL3. After 48 hours cells were lysed and whole cell lysates (WCL) were blotted for VEGFR-2, PDCL3 and Hsp70 for loading control. Quantification of premature (newly synthesized and partially glycosylated VEGFR-2 corresponding to lower molecular weight) and mature (fully glycosylated) forms of VEGFR-2 is shown. Mean results of three independent experiments are shown. *P=0.04 and […]. FIG. 1B. Human umbilical vein endothelial cells (HUVECs) were transfected with control siRNA or PDCL3-siRNA. After 48 hours cells serum-starved for overnight followed by stimulation with VEGF for 10 minutes. Cells were lysed and whole cell lysates were blotted for phospho-Y1054-VEGFR-2, total VEGFR-2, PDCL3 and Hsp70 for loading control. FIG. 1C. Thermo-induced aggregation of VEGFR-2 was measured using PSA dye as described in the materials and method section. FIG. 1D. In vitro transcription/translation of VEGFR-2 in the absence or presence of exogenous recombinant PDCL3 was performed as described in the materials and method section and schematic of the procedure is shown. FIG. 1E. In vitro translated VEGFR-2 protein in the absence or presence of exogenous recombinant PDCL3 was blotted for VEGFR-2. FIG. 1F. […]

VEGFR-2 [2] = assay: Cycloheximide-chase / VEGF-induced downregulation of VEGFR-2; type: cell-based
Experimental: FIG. 2A. Illustrated is the schematic of treatment of cells with cycloheximide (CHX) and VEGF. PAE cells co-expressing VEGFR-2 with empty vector (pMSCV) or PDCL3 were incubated with CHX for 90 minutes followed by stimulation with VEGF for indicated times. Whole cell lysates was blotted for VEGFR-2 and loading control protein, PLCγ1. FIG. 2B. Shown are the quantification of the half-life of mature VEGFR-2 and pre-mature VEGFR-2 based on the VEGFR-2 blot from the panel FIG. 2A. FIGS. 2C-2D. PAE cells co-expressing VEGFR-2 with empty vector (pMSCV) or PDCL3 were stimulated with VEGF for indicated times and whole cell lysates were processed as panel FIG. 2A.
PAE cells expressing VEGFR-2 alone or together with PDCL3 were serum-starved for overnight followed by incubation of cells with serum-free DMEM medium containing cycloheximide (20 μg/ml, 90 min). Cells then were stimulated with VEGF for various times to downregulate cell surface VEGFR-2. Cells were lysed and whole cell lysates was blotted for VEGFR-2 using anti-VEGFR-2 antibody. For measuring half-life of PDCL3 and HA-tagged mutant PDCL3, cells were incubated with serum-free DMEM medium containing cycloheximide (20 μg/ml) for indicated times and cells were lysed and whole cell lysates was blotted for PDCL3.

VEGFR-2 [3] = assay: Protein aggregation assay (PSA dye), thermo-induced aggregation; type: biochemical; conditions: immunoprecipitated VEGFR-2, 45° C.
Experimental: Aggregation of VEGFR-2 determined using PSA kit purchased from PROFOLDIN, Inc (Hudson, Mass.) and assay was performed according to manufacturer's guideline. […] When the PSA dye binds to the aggregate, it is immobilized and slows down the rotational movement and inducing the dye to fluoresce. In brief, VEGFR-2 immunoprecipitated from HEK-293 cells and eluded from the protein-sepharose beads. The eluded VEGFR-2 protein was incubated in the 45° C. in the presence or absence of purified GST-PDCL3 for various time points. The Fluorescence intensity was measured at […].

PAE cells = assay: Capillary tube formation on matrigel; type: cell-based, porcine; conditions: over-expression with VEGFR-2 in endothelial cells, 12 hours
Experimental: (§1) FIG. 6A. Cell lysates from HEK-293 cells co-expressing PDCL3 with VEGFR-2 or HA-PDCL3 with VEGFR-2 were immunoprecipitated with VEGFR-2 and immunoblotted for PDCL3 using anti-Myc antibody. Whole cell lysates was also blotted for VEGFR-2, PDCL3 and HSp70 as a loading control. Ubiquitination of VEGFR-2 was determined by immunoprecipitation with anti-VEGFR-2 followed by immunoblotting with anti-ubiquitin antibody. FIG. 6B. The graph is quantification of the ubiquitination blot of VEGFR-2. FIG. 6C. Angiogenic potential of wild-type and HA-tagged methionine mutant PDCL3 expressed in PAE cells is shown. PAE cells engineered to express VEGFR-2 alone, VEGFR-2 with wild-type PDCL3 or VEGFR-2 with HA-tagged methionine mutant PDCL3. Cells were plated on matrigel and pictures were taken after 12 hours. Image J was used to quantify tube formation. Graph is representative of three independent experiments.

VEGFR-2 [4] = assay: Co-immunoprecipitation with VEGFR-2 and VEGFR-2 ubiquitination blot; type: cell-based; conditions: HEK-293 cells co-expressing VEGFR-2
Experimental: as §1
Plasmids and siRNA: Human Phosducin like protein 3 cDNA (PDCL3 also called PHLP2A) (Clone #3344703, accession #BC001021) was purchased from OPEN BIOSYSTEMS and was cloned into expression vectors, pcDNA3.1/Myc-His(−) or retroviral pMSCV. Mutant PDCL3 was generated by removing the first methionine and adding HA tag and similarly was cloned into pcDNA3.1 and pMSCV vectors. […]

**Q.** With `C[C@H]1CCC/C=C/[C@@H]2C[C@H](O)C[C@H]2[C@H](O)/C=C/C(=O)O1` [Brefeldin A] as the molecule, how does the “binding of PDCL3 with VEGFR-2” value (PDCL3 with VEGFR-2) read?
**A.** The value was “did not inhibit the binding of PDCL3 with VEGFR-2”.

**Q.** With `[Cl][Co][Cl]` [cobalt chloride] as the molecule, how does the “expression of PDCL3 and VEGFR-2” value (PDCL3 and VEGFR-2) read?
**A.** Its value is “similarly increased expression of PDCL3 and VEGFR-2”.

**Q.** How did the “angiogenesis (intersegmental vessel formation)” value (zebrafish embryos) turn out when “pdcl3 morpholino: PDCL3 morpholino for zebrafish, 5′CGGTGTCTGCGTTTGGGTCCTGCAT3′ (SEQ ID NO: 10), Gene Tools (all phosphorodiamidate morpholino (PMO))” was run?
**A.** Its value is “significantly inhibited angiogenesis”.

B1: PDCL3: 239-amino acid human phosducin-like protein 3, SEQ ID NO: 1; expressed from cDNA in cells (protein, listed as Homo sapiens)
chain: MQDPNADTEWNDILRKKGILPPKESLKELEEEAEEEQRILQQSVVKTYEDMTLEELEDHEDEFNEEDERAIEMYRRRRLAEWKATKLKNKFGEVLEISGKDYVQEVTKAGEGLWVILHLYKQGIPLCALINQHLSGLARKFPDVKFIKAISTTCIPNYPDRNLPTIFVYLEGDIKAQFIGPLVFGGMNLTRDELEWKLSESGAIMTDLEENPKKPIEDVLLSSVRRSVLMKRDSDSEGD
modifications: Myc tag in some forms
notes: expressed from cDNA in cells
**Q.** Which “expression of VEGFR-1, VEGFR-2 and CSF-1R” value [1] does the source give for B1 here?
**A.** The value was “markedly increased expression of VEGFR-1, VEGFR-2 and CSF-1R”.

**Q.** What about the “abundance of premature and mature forms of VEGFR-2” value ([1]; different concentrations of Myc-tagged PDCL3, 48 hours) of the same molecule?
**A.** The value was “increases the abundance of premature and mature forms of VEGFR-2 in a dose-dependent manner”.

**Q.** What about the “half-life of newly made VEGFR-2” value (VEGFR-2 [2]; PAE cells co-expressing VEGFR-2 with PDCL3) of the same molecule?
**A.** The value was “extends the half-life of newly made VEGFR-2”.

**Q.** What about the “VEGF-induced downregulation of mature VEGFR-2” value (VEGFR-2 [2]; PAE cells, absence of cycloheximide) of the same molecule?
**A.** Its value is “markedly slower”.

**Q.** What about the “aggregation of VEGFR-2” value (VEGFR-2 [3]) of the same molecule?
**A.** The value was “significantly reduced aggregation of VEGFR-2 in a time-dependent manner”.

**Q.** What about the angiogenesis/capillary tube formation (PAE cells) of the same molecule?
**A.** Its angiogenesis/capillary tube formation is “increased angiogenesis/capillary tube formation”.

B2: acetylation resistant HA-tagged PDCL3: Mutant PDCL3 generated by removing the first methionine and adding HA tag (protein)
chain: QDPNADTEWNDILRKKGILPPKESLKELEEEAEEEQRILQQSVVKTYEDMTLEELEDHEDEFNEEDERAIEMYRRRRLAEWKATKLKNKFGEVLEISGKDYVQEVTKAGEGLWVILHLYKQGIPLCALINQHLSGLARKFPDVKFIKAISTTCIPNYPDRNLPTIFVYLEGDIKAQFIGPLVFGGMNLTRDELEWKLSESGAIMTDLEENPKKPIEDVLLSSVRRSVLMKRDSDSEGD
modifications: left off: small tags and cut ends
**Q.** Which angiogenesis/capillary tube formation (PAE cells) does the source give for B2 here?
**A.** Its angiogenesis/capillary tube formation is “more robust”.

**Q.** What about the “interaction with VEGFR-2” value (VEGFR-2 [4]) of the same molecule?
**A.** Its value is “interacted strongly with VEGFR-2 compared to wild-type PDCL3”.

**Q.** And the “ubiquitination of VEGFR-2” value (VEGFR-2 [4])?
**A.** The value was “prevented VEGFR-2 from ubiquitination”.
